Assay results: patent US20160244728A1, “CULTURE METHOD FOR PLURIPOTENT STEM CELLS AND KIT AND MEDIUM FOR CULTURE OF PLURIPOTENT STEM CELLS USED THEREIN” (FUJIFILM Corporation, priority 2013, published 2016)

Experiments:
[1] = Evaluation of adsorbability with respect to culture dish; assay type: physicochemical; conditions: FIG. 1; for adsorbability with respect to the plate (in words): 0 to 200 pmol/cm^2 added, 2 hours at 37° C., compared with RCP-11
Method: Each of the polypeptides obtained as above was diluted with a predetermined buffer such that they could be added to wells at a predetermined final concentration of 0 pmol/cm^2 to 200 pmol/cm^2. Thereafter, each of the polypeptides was added in an amount of 64 μL to a plasma-treated 96-well plate made of polystyrene (Tissue Culture-Treated, Falcon). Each of the polypeptides was allowed to adsorb onto the plate by being incubated for 2 hours at 37° C., and then the wells were washed twice with PBS, thereby obtaining surfaces coated with each of the polypeptides of RCP-1 to RCP-16.
Among the surfaces coated with each of the polypeptides obtained as above, the surfaces coated with RCP-1 and RCP-11 to RCP-16 were applied with 64 μL of a borate buffer and 64 μL of 1 N NaOH, followed by incubation for 24 hours at 80° C. and 100% humidity. After the resultant was air-cooled, 75 μL of a borate buffer was added to each well, and 50 μL of a reaction solution obtained by mixing OPA (o-phthalaldehyde: Wako Pure Chemical Industries, Ltd./methanol solution (160 mg/ml)) with N-acetyl-L-cysteine (NAC: Wako Pure Chemical Industries, Ltd.)/borate buffer solution (2 mg/ml) at a ratio of 1:100 (mass ratio) was further added thereto. After incubation for 30 minutes at 40° C., the fluorescence intensity thereof was measured by using an Envision Multilabel Counter (PerkinElmer Inc.) (excitation 355 nm/fluorescence 486 nm). A calibration curve was separately prepared from each of the polypeptide solutions so as to calculate the amount of the polypeptide adsorbed. In FIG. 1, a black rhombus indicates RCP-1, a black square indicates RCP-11, a black triangle indicates RCP-12, a black circle indicates RCP-13, a white rhombus indicates RCP-14, a white square indicates RCP-15, and a white triangle indicates RCP-16.

human iPS cells [2] = assay: Evaluation of maintenance of undifferentiated state; assay type: cell-based; conditions: for form of the iPS cell colony: FIGS. 3A to 3E, TeSR2, subcultured every six days; for maintenance of the undifferentiated state (NANOG staining): FIGS. 4A to 4E, after culture for 1 month
Method: iPS cells collected in the same manner as in <Cell adhesiveness evaluation 1> were suspended in TeSR2. The iPS cells were seeded into 6-well plate (Tissue culture-treated, Falcon), onto which each of the samples 1, 2, 5, 6, and 7 used in <Cell adhesiveness evaluation 1> was adsorbed in the same manner as in <Cell adhesiveness evaluation 1>, and cultured in a CO2 incubator at 37° C. Except for the day after the seeding, the medium was replaced every day. In the same method as described above, the cells were subcultured every six days. FIGS. 3A to 3E show forms of the iPS cells cultured on each of the samples.
After being cultured for 1 month under the conditions described above, the cells were immobilized using 4% paraformaldehyde and treated with 1% Triton-X/PBS so as to enhance the membrane permeability. After the cells were subjected to a blocking treatment using an Image IT Signal Enhancer (Invitrogen), an anti-human NANOG antibody (AF 1997, R&D Systems, Inc.), an Alexa Fluor 555 binding rabbit anti-goat IgG antibody (Invitrogen), and DAPI (Dojindo Molecular Technologies, Inc.) were added thereto for labeling, and the cells were imaged using a fluorescence microscope. FIGS. 4A to 4E show the fluorescence microscopic images.
FIGS. 3A and 4A show the iPS cells cultured on RCP-1; FIGS. 3B and 4B show the iPS cells cultured on RCP-11; FIGS. 3C and 4C show the iPS cells cultured on natural human vitronectin; FIGS. 3D and 4D show the iPS cells cultured on rLaminin-5; and FIGS. 3E and 4E show the iPS cells cultured on rLaminin-511. The scale bar in the images indicates 100 μm. In FIGS. 3A to 3E, the images on the left side are full images of the colony, and the images on the right side are magnified images. In FIGS. 4A to 4E, the images on the left side are images of the cells stained with DAPI, and the images on the right side are images of the cells stained with an anti-NANOG antibody. The scale bar in FIGS. 3 and 4 indicates 200 μm.

human iPS cells [3] = assay: Growth evaluation, growth curves over 8 days; assay type: cell-based; conditions: FIG. 2; 250 cells/well
Method: The iPS cells collected in the same manner as in <Cell adhesiveness evaluation 1> were seeded into a 96-well plate, onto which RCP-1, RCP-11, and natural human vitronectin were adsorbed, at a ratio of 250 cells/well and cultured for 8 days in a 5% CO2 incubator at 37° C. The number of adhesive cells after different days of culture was measured in the same manner as in <Cell adhesiveness evaluation 1>, thereby obtaining growth curves. […] In FIG. 2, a black rhombus indicates a case using RCP-1, and a black square indicates a case using RCP-11.

RCP-14: recombinant polypeptide, human vitronectin positions 1-55 (GPLGDQESCKGRCTEGFNVDKKCQCDELCSYYQSCCTDYTAECKPQVTRGDVFTMPEDE; Synthetic Peptide RCP-14)
amount adsorbed onto the plate relative to the polypeptide including SEQ ID NO: 3 [1]: about 1/4

B1: RCP-13: recombinant polypeptide, human vitronectin positions 1-55, 56-129 (protein)
chain: GPLGDQESCKGRCTEGFNVDKKCQCDELCSYYQSCCTDYTAECKPQVTRGDVFTMPEDEYTVYDDGEEKNNATVHEQVGGPSLTSDLQAQSKGNPEQTPVLKPEEEAPAPEVGASKPEGIDSRPETLHPGRPQP
modifications: Synthetic Peptide RCP-13
amount adsorbed onto the plate relative to the polypeptide including SEQ ID NO: 3 [1]: about 1/4

B2: RCP-15: recombinant polypeptide, human vitronectin positions 56-459 (protein)
chain: GPLGYTVYDDGEEKNNATVHEQVGGPSLTSDLQAQSKGNPEQTPVLKPEEEAPAPEVGASKPEGIDSRPETLHPGRPQPPAEEELCSGKPFDAFTDLKNGSLFAFRGQYCYELDEKAVRPGYPKLIRDVWGIEGPIDAAFTRINCQGKTYLFKGSQYWRFEDGVLDPDYPRNISDGFDGIPDNVDAALALPAHSYSGRERVYFFKGKQYWEYQFQHQPSQEECEGSSLSAVFEHFAMMQRDSWEDIFELLFWGRTSAGTRQPQFISRDWHGVPGQVDAAMAGRIYISGMAPRPSLAKKQRFRHRNRKGYRSQRGHSRGRNQNSRRPSRATWLSLFSSEESNLGANNYDDYRMDWLVPATCEPIQSVFFFSGDKYYRVNLRTRRVDTVDPPYPRSIAQYWLGCPAPGHL
modifications: Synthetic Peptide RCP-15
adsorbability with respect to the plate (in words) [1]: excellent adsorbability

B3: RCP-1: recombinant polypeptide, human vitronectin positions 1-55 and 269-459, methionine on the N-terminal (protein)
chain: MDQESCKGRCTEGFNVDKKCQCDELCSYYQSCCTDYTAECKPQVTRGDVFTMPEDEPSQEECEGSSLSAVFEHFAMMQRDSWEDIFELLFWGRTSAGTRQPQFISRDWHGVPGQVDAAMAGRIYISGMAPRPSLAKKQRFRHRNRKGYRSQRGHSRGRNQNSRRPSRATWLSLFSSEESNLGANNYDDYRMDWLVPATCEPIQSVFFFSGDKYYRVNLRTRRVDTVDPPYPRSIAQYWLGCPAPGHL
modifications: Synthetic Peptide RCP-1
form of the iPS cell colony (human iPS cells [2]): form specific to undifferentiated cells
maintenance of the undifferentiated state (NANOG staining) (human iPS cells [2]): strongly expressed NANOG in the entirety of the colony
adsorbability with respect to the plate (in words) [1]: excellent adsorbability

B4: RCP-11: recombinant polypeptide corresponding to the sequence of natural human vitronectin, positions 1-459 (protein)
chain: GPLGDQESCKGRCTEGFNVDKKCQCDELCSYYQSCCTDYTAECKPQVTRGDVFTMPEDEYTVYDDGEEKNNATVHEQVGGPSLTSDLQAQSKGNPEQTPVLKPEEEAPAPEVGASKPEGIDSRPETLHPGRPQPPAEEELCSGKPFDAFTDLKNGSLFAFRGQYCYELDEKAVRPGYPKLIRDVWGIEGPIDAAFTRINCQGKTYLFKGSQYWRFEDGVLDPDYPRNISDGFDGIPDNVDAALALPAHSYSGRERVYFFKGKQYWEYQFQHQPSQEECEGSSLSAVFEHFAMMQRDSWEDIFELLFWGRTSAGTRQPQFISRDWHGVPGQVDAAMAGRIYISGMAPRPSLAKKQRFRHRNRKGYRSQRGHSRGRNQNSRRPSRATWLSLFSSEESNLGANNYDDYRMDWLVPATCEPIQSVFFFSGDKYYRVNLRTRRVDTVDPPYPRSIAQYWLGCPAPGHL
modifications: Synthetic Peptide CRP-11
form of the iPS cell colony (human iPS cells [2]): form specific to undifferentiated cells
maintenance of the undifferentiated state (NANOG staining) (human iPS cells [2]): strongly expressed NANOG in the entirety of the colony
number of cells on Day 8 of culture relative to the case where RCP-1 was used (human iPS cells [3]): about 1/3

B5: RCP-16: recombinant polypeptide, human vitronectin positions 269-459 (protein)
chain: GPLGPSQEECEGSSLSAVFEHFAMMQRDSWEDIFELLFWGRTSAGTRQPQFISRDWHGVPGQVDAAMAGRIYISGMAPRPSLAKKQRFRHRNRKGYRSQRGHSRGRNQNSRRPSRATWLSLFSSEESNLGANNYDDYRMDWLVPATCEPIQSVFFFSGDKYYRVNLRTRRVDTVDPPYPRSIAQYWLGCPAPGHL
modifications: Synthetic Peptide RCP-16
adsorbability with respect to the plate (in words) [1]: excellent adsorbability

B6: Natural vitronectin: human vitronectin (extracted from human serum, BD Biosciences), control (protein, listed as Homo sapiens)
chain: DQESCKGRCTEGFNVDKKCQCDELCSYYQSCCTDYTAECKPQVTRGDVFTMPEDEYTVYDDGEEKNNATVHEQVGGPSLTSDLQAQSKGNPEQTPVLKPEEEAPAPEVGASKPEGIDSRPETLHPGRPQPPAEEELCSGKPFDAFTDLKNGSLFAFRGQYCYELDEKAVRPGYPKLIRDVWGIEGPIDAAFTRINCQGKTYLFKGSQYWRFEDGVLDPDYPRNISDGFDGIPDNVDAALALPAHSYSGRERVYFFKGKQYWEYQFQHQPSQEECEGSSLSAVFEHFAMMQRDSWEDIFELLFWGRTSAGTRQPQFISRDWHGVPGQVDAAMAGRIYISGMAPRPSLAKKQRFRHRNRKGYRSQRGHSRGRNQNSRRPSRATWLSLFSSEESNLGANNYDDYRMDWLVPATCEPIQSVFFFSGDKYYRVNLRTRRVDTVDPPYPRSIAQYWLGCPAPGHL
form of the iPS cell colony (human iPS cells [2]): form specific to undifferentiated cells
maintenance of the undifferentiated state (NANOG staining) (human iPS cells [2]): strongly expressed NANOG in the entirety of the colony
